In paper PMC5373496 (Science (New York, N.Y.), 2016):
Blank lines part the entries; values can stand above or below the binder they belong to.

Legend:
[1] = biological target: T1, Cdc37 tagged at its N terminus with T4 lysozyme (human, UniProt Q16543 1-378); assay: cryo-EM structure
T1 sequence (looked up): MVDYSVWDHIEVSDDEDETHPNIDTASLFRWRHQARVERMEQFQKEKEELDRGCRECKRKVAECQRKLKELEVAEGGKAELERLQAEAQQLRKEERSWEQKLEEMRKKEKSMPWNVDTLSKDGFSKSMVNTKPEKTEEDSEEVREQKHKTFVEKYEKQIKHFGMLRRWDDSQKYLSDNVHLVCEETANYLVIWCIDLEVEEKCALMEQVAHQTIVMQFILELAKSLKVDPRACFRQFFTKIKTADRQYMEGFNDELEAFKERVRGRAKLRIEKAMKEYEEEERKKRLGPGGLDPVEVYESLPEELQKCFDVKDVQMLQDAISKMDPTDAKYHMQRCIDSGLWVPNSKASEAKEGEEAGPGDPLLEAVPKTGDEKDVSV

[2] = biological target: T2, Cdc37 of the yeast complex with T4 lysozyme-tagged Cdk4 (human, UniProt Q16543 1-378); assay: cryo-EM structure
T2 sequence (looked up): T1 sequence (looked up)

binding result [1]: binds
B1: Cdk4 of the yeast complex with T4 lysozyme-tagged Cdc37 (natural protein, human, UniProt P11802 1-303, looked up)
chain: MATSRYEPVAEIGVGAYGTVYKARDPHSGHFVALKSVRVPNGGGGGGGLPISTVREVALLRRLEAFEHPNVVRLMDVCATSRTDREIKVTLVFEHVDQDLRTYLDKAPPPGLPAETIKDLMRQFLRGLDFLHANCIVHRDLKPENILVTSGGTVKLADFGLARIYSYQMALTPVVVTLWYRAPEVLLQSTYATPVDMWSVGCIFAEMFRRKPLFCGNSEADQLGKIFDLIGLPPEDDWPRDVSLPRGAFPPRGPRPVQSVVPEMEESGAQLLLEMLTFNPHKRISAFRALQHSYLHKDEGNPE

binding result [2]: binds
B2: Cdk4 tagged at its C terminus with T4 lysozyme (natural protein, human, UniProt P11802 1-303, looked up)
chain: B1 chain
